According to patent publication US20250313611A1 (VIB VZW, published 2025):

T1: recombinant HKU1 spike protein (HCoV-HKU1, UniProt Q5MQD0 13-1276)
T1 sequence: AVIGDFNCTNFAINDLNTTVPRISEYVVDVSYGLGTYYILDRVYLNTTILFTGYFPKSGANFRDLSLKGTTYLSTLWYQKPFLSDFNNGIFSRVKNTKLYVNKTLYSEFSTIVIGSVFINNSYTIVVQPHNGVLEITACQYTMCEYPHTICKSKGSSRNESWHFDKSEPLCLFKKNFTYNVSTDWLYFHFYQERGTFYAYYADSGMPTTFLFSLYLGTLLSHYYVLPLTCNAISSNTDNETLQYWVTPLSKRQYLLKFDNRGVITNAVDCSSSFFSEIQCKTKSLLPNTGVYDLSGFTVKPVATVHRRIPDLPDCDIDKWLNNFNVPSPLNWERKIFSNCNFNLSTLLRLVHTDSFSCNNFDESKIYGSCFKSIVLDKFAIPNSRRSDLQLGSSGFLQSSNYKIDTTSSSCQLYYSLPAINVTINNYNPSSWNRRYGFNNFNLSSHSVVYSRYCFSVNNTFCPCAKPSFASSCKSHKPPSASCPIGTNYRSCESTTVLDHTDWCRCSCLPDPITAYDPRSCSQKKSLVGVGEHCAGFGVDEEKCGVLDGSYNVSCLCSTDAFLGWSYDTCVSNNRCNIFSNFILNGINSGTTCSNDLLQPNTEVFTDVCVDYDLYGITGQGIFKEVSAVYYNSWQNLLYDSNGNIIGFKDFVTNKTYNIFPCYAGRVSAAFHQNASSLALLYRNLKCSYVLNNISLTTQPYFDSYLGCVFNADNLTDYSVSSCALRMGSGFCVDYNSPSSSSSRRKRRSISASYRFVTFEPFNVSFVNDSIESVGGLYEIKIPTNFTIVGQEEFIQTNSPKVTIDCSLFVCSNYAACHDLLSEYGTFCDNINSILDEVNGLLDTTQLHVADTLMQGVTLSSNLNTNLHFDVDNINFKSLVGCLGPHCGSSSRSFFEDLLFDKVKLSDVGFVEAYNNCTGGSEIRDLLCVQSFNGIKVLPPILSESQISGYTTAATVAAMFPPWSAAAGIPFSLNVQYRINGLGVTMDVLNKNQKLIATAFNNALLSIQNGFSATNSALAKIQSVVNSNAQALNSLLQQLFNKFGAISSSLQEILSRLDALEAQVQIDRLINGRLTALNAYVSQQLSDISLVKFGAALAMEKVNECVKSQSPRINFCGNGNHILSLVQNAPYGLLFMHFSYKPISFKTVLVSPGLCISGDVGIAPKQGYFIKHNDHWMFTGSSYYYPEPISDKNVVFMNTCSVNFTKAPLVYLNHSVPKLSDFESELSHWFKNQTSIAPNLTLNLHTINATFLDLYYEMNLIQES

T2: recombinant MERS-COV spike protein (MERS-CoV, UniProt K9N5Q8 18-1291)
T2 sequence: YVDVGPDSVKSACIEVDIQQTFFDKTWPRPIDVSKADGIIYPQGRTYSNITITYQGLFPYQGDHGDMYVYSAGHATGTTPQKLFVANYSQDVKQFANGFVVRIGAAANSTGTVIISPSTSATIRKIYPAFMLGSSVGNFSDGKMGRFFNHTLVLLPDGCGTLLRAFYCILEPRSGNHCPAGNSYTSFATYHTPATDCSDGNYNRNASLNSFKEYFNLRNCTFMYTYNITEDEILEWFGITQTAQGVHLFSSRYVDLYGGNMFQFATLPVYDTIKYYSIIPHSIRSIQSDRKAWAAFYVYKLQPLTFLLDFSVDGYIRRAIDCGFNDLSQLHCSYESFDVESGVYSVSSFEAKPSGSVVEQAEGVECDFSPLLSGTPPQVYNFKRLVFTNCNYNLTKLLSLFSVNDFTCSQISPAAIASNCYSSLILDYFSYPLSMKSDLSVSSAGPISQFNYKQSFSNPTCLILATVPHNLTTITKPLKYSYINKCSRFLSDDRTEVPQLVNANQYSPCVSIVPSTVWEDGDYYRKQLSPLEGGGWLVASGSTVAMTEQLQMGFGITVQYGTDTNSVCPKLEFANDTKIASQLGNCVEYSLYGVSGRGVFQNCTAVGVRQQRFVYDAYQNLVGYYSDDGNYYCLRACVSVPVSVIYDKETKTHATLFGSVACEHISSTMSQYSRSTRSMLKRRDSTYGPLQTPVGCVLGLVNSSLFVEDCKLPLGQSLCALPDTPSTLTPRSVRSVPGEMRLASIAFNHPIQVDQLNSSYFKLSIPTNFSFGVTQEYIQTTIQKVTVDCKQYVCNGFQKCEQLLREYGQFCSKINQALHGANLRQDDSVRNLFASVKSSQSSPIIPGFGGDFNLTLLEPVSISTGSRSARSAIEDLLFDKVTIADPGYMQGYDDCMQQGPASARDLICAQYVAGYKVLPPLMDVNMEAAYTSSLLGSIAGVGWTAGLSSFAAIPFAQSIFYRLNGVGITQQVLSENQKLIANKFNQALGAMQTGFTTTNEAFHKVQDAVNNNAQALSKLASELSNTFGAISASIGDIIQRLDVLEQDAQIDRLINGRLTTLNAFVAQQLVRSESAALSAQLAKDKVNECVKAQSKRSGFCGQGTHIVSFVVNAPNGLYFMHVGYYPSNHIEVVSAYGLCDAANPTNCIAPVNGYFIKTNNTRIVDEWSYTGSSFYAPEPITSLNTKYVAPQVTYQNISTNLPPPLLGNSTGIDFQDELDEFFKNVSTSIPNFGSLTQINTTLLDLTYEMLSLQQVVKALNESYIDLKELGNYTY


Columns and labels:
[1] = biological target: T1, recombinant HKU1 spike protein; test: ELISA, periplasmic extract 1/10, heat map of binding (%)
[2] = biological target: T2, recombinant MERS-COV spike protein; test: as above

Row | Binder | binding result [1] | binding result [2]
1 | VHH R3_DC23 (VHH) VHH: QVQLQESGGGLVQAGDSLTLSCAVSGRIFSTYTMGWFRQAPGKEREFVAAVRWGAGTIYYADSMKGRFTISRDSAKNTVDLQMNSTKPEDTAVYYCGAAYVSKANYGSLWYQDSRRYDYWGQGTQVTVSS | no binding (tested: extract 1/10, concentration not given) | no binding (tested: extract 1/10, concentration not given)
2 | VHH R3_C4 (VHH) VHH: QVQLQESGGGLVQAGDSLRLSCAVSGRPFSTYTMGWFRQAPGKEREFVAAMRWSGGTIYYADSVKGRFTISRDNDKNTVNLEMNSLKPEDTAVYYCAAAYVSKANYGSLWYRASGLYDYWGQGTQVTVSS | no binding (tested: extract 1/10, concentration not given) | no binding (tested: extract 1/10, concentration not given)
3 | VHH R4_DC16 (VHH) VHH: QVQLQESGGGLVQAGDSLRLSCAVSGRPFSTYTMGWFRQAPGKEREFVAAMRWSGGTIYYADSVKGRFTISRDNAQNTVNLQMNSLKPEDTAVYYCAAAYVSKANYGSSWYRNSGLYDYWGQGTQVTVSS | no binding (tested: extract 1/10, concentration not given) | no binding (tested: extract 1/10, concentration not given)
4 | VHH R3_DC20 (VHH) VHH: QVQLQESGGGLVQAGDSLRLSCAVSGRPFSTYTMGWFRQAPGKEREFVAAMRWSGGTIYYADSVKGRFTISRDNAQNTVNLQMNSLEPEDTAVYYCAAAYVSKANYGSLWYRNSGLYDYWGQGTQVTVSS | no binding (tested: extract 1/10, concentration not given) | no binding (tested: extract 1/10, concentration not given)
5 | VHH R4_DC9 (VHH) VHH: QVQLQESGGGLVQAGDSLRLSCAASGRIFSTYTMGWFRQAPGMEREFVAAIRWSGSTVYYADSVKGRFTISRDNAKNTVYLQMNSLKPEDTAVYYCAAARVSKANYGTLWYRASGLYDYWGQGTQVTVSS | no binding (tested: extract 1/10, concentration not given) | no binding (tested: extract 1/10, concentration not given)
6 | VHH R3_DC2 (VHH) VHH: QVQLQESGGGLVQTGDSLRLSCAVSGRPFSTYTMGWFRQAPGKEREFVASMRWSGGTKYYSDSVKGRFSISRDNDQNTVNLQMNSLKPEDTAVYYCAAAYVSKANYGSLWYRNSGLYDYWGQGTQVTVSS | no binding (tested: extract 1/10, concentration not given) | no binding (tested: extract 1/10, concentration not given)
7 | VHH R4_DC13 (VHH) VHH: QVQLQESGGGLVQTGDSLRLSCAVSGRPFSTYTMGWFRQAPGKEREFVASMRWSGGTVYYSDSVKGRFTISRDNDKNTVNLQMNNLKPEDTAVYYCAAAYVSKANYGSFWYRNSDLYDYWGQGTQVTVSS | no binding (tested: extract 1/10, concentration not given) | no binding (tested: extract 1/10, concentration not given)
8 | VHH R4_DC20 (VHH) VHH: QVQLQESGGGLVQTGDSLRLSCAVSGRPFSTYTMGWFRQAPGKEREFVASMRWSGGTMNYADSVKGRFTISRDNDQNTVNLQMNSLKPEDTAVYYCAAAYVSKANYGSLWYRNSGLYDYWGQGTQVTVSS | no binding (tested: extract 1/10, concentration not given) | no binding (tested: extract 1/10, concentration not given)
9 | VHH R3_DC9 (VHH) VHH: QVQLQESGGGLVQTGDSLRLSCAVSGRPFSTYTMGWFRQAPGKEREFVASMRWSGGTMYYSDSVKGRFTISRDNDKNTVNLQMNSLKPEDTAVYYCAAAYVSKANYGSLWYRNSGLYDYWGQGTQVTVSS | no binding (tested: extract 1/10, concentration not given) | no binding (tested: extract 1/10, concentration not given)
10 | VHH R4_DC6 (VHH) VHH: QVQLQESGGGLVQAGDSLRLSCAASGRILSTFTMGWFRQAPGKEREFVAAMRWNGGTKNYADSVKGRFTISRDNANSVVYLQMNSTKPEDTAVYYCAAAYVSKANYGSLWYRTPSLYDYWGQGTQVTVSS | no binding (tested: extract 1/10, concentration not given) | no binding (tested: extract 1/10, concentration not given)
